Data as given in publication PMC13397619.

B1: NLV3 TCR beta chain (CDR3β only) (parent)
chain: ASSPTGGSPSPLH

Variants of: B1
Experiment: T-Switch: Jurkat TCRβ−/− cells expressing a CDR3 saturation-mutagenesis library, stained with two peptide-HLA-A*02:01 tetramers (original and novel peptide) plus anti-CD3, FACS-sorted into four gates, gDNA sequenced
Details: tetramers 1 µg/mL, 30 min on ice, SP, DP and SW gates expanded about 10 days between rounds ('two to three rounds of selection' in the Methods), unresolved parent, parent is a CDR3 fragment, scale: fold enrichment, numbering: sequential-on-construct, sequence starts at 1
[1] = with both tetramers (double-negative gate, binds neither): HLA-A*02:01 with … and with …, gate DN: OPPOSITE: higher = more of the variant in the gate that binds neither peptide = LESS binding (or no expression; inferred). Fold enrichment of the CDR3 variant in one FACS gate of a two-tetram
[2] = with both tetramers (double-positive gate): HLA-A*02:01 with … and with …, gate DP: higher = more of the variant in the gate that binds both peptides. Fold enrichment of the CDR3 variant in one FACS gate of a two-tetramer stain. SP/DP/SW gates were expanded and re-sorted bef

| Variant | enrichment [1] | enrichment [2] |
| --- | --- | --- |
| […] (CDR3 as printed); L12H derived by comparing it with the table's wild-type CDR3 ASSPTGGSPSPLH | 0.844 | 0 |
| […] (CDR3 as printed); S3G derived by comparing it with the table's wild-type CDR3 ASSPTGGSPSPLH | 0.543 | 0 |
| […] (CDR3 as printed); H13A derived by comparing it with the table's wild-type CDR3 ASSPTGGSPSPLH | 0.498 | 0 |
| […] (CDR3 as printed); S10T derived by comparing it with the table's wild-type CDR3 ASSPTGGSPSPLH | 1.08 | 0 |
| […] (CDR3 as printed); P9L derived by comparing it with the table's wild-type CDR3 ASSPTGGSPSPLH | 1.2 | 0 |
| […] (CDR3 as printed); L12N derived by comparing it with the table's wild-type CDR3 ASSPTGGSPSPLH | 0.99 | 0 |
| […] (CDR3 as printed); G7Q derived by comparing it with the table's wild-type CDR3 ASSPTGGSPSPLH | 1.09 | 0 |
| […] (CDR3 as printed); H13R derived by comparing it with the table's wild-type CDR3 ASSPTGGSPSPLH | 0.602 | 0 |
| […] (CDR3 as printed); A1G derived by comparing it with the table's wild-type CDR3 ASSPTGGSPSPLH | 0.451 | 0 |
| […] (CDR3 as printed); P9M derived by comparing it with the table's wild-type CDR3 ASSPTGGSPSPLH | 1.18 | 0 |
| […] (CDR3 as printed); S10H derived by comparing it with the table's wild-type CDR3 ASSPTGGSPSPLH | 0.949 | 0 |
| […] (CDR3 as printed); H13T derived by comparing it with the table's wild-type CDR3 ASSPTGGSPSPLH | 0.524 | 0 |
| […] (CDR3 as printed); P9G derived by comparing it with the table's wild-type CDR3 ASSPTGGSPSPLH | 1.21 | 0 |
| […] (CDR3 as printed); P11F derived by comparing it with the table's wild-type CDR3 ASSPTGGSPSPLH | 0.728 | 0 |
| […] (CDR3 as printed); H13K derived by comparing it with the table's wild-type CDR3 ASSPTGGSPSPLH | 0.708 | 0 |
| […] (CDR3 as printed); P11I derived by comparing it with the table's wild-type CDR3 ASSPTGGSPSPLH | 1.19 | 0 |
| […] (CDR3 as printed); G7W derived by comparing it with the table's wild-type CDR3 ASSPTGGSPSPLH | 1.22 | 0 |
| […] (CDR3 as printed); S3D derived by comparing it with the table's wild-type CDR3 ASSPTGGSPSPLH | 0.675 | 0 |
| […] (CDR3 as printed); P4K derived by comparing it with the table's wild-type CDR3 ASSPTGGSPSPLH | 0.891 | 0 |
| […] (CDR3 as printed); L12S derived by comparing it with the table's wild-type CDR3 ASSPTGGSPSPLH | 0.878 | 0 |

| Variant | enrichment [1] | enrichment [2] |
| --- | --- | --- |
| […] (CDR3 as printed); P9E derived by comparing it with the table's wild-type CDR3 ASSPTGGSPSPLH | 0.929 | 0 |
| […] (CDR3 as printed); H13P derived by comparing it with the table's wild-type CDR3 ASSPTGGSPSPLH | 1 | 0 |
| […] (CDR3 as printed); P4H derived by comparing it with the table's wild-type CDR3 ASSPTGGSPSPLH | 0.553 | 0 |
| […] (CDR3 as printed); L12A derived by comparing it with the table's wild-type CDR3 ASSPTGGSPSPLH | 1.68 | 0 |
| […] (CDR3 as printed); G6F derived by comparing it with the table's wild-type CDR3 ASSPTGGSPSPLH | 1.27 | 0 |
| […] (CDR3 as printed); P11Q derived by comparing it with the table's wild-type CDR3 ASSPTGGSPSPLH | 0.777 | 0 |
| […] (CDR3 as printed); G6P derived by comparing it with the table's wild-type CDR3 ASSPTGGSPSPLH | 1.09 | 0 |
| […] (CDR3 as printed); S2N derived by comparing it with the table's wild-type CDR3 ASSPTGGSPSPLH | 0.879 | 0 |
| […] (CDR3 as printed); P4F derived by comparing it with the table's wild-type CDR3 ASSPTGGSPSPLH | 1.02 | 0 |
| […] (CDR3 as printed); P9I derived by comparing it with the table's wild-type CDR3 ASSPTGGSPSPLH | 1.11 | 0 |
| […] (CDR3 as printed); S10I derived by comparing it with the table's wild-type CDR3 ASSPTGGSPSPLH | 0.982 | 0 |
| […] (CDR3 as printed); S3V derived by comparing it with the table's wild-type CDR3 ASSPTGGSPSPLH | 0.951 | 0 |
| […] (CDR3 as printed); T5A derived by comparing it with the table's wild-type CDR3 ASSPTGGSPSPLH | 0.817 | 0 |
| […] (CDR3 as printed); A1Q derived by comparing it with the table's wild-type CDR3 ASSPTGGSPSPLH | 0.998 | 0 |
| […] (CDR3 as printed); P9F derived by comparing it with the table's wild-type CDR3 ASSPTGGSPSPLH | 0.851 | 0 |
| […] (CDR3 as printed); P9W derived by comparing it with the table's wild-type CDR3 ASSPTGGSPSPLH | 1.05 | 0 |
| […] (CDR3 as printed); P4S derived by comparing it with the table's wild-type CDR3 ASSPTGGSPSPLH | 0.973 | 0 |
| […] (CDR3 as printed); S10C derived by comparing it with the table's wild-type CDR3 ASSPTGGSPSPLH | 0.577 | 0 |
| […] (CDR3 as printed); A1K derived by comparing it with the table's wild-type CDR3 ASSPTGGSPSPLH | 0.994 | 0 |
| […] (CDR3 as printed); P11G derived by comparing it with the table's wild-type CDR3 ASSPTGGSPSPLH | 1.17 | 0 |

| Variant | enrichment [1] | enrichment [2] |
| --- | --- | --- |
| […] (CDR3 as printed); G7I derived by comparing it with the table's wild-type CDR3 ASSPTGGSPSPLH | 1.05 | 0 |
| […] (CDR3 as printed); G6M derived by comparing it with the table's wild-type CDR3 ASSPTGGSPSPLH | 0.906 | 0 |
| […] (CDR3 as printed); G7H derived by comparing it with the table's wild-type CDR3 ASSPTGGSPSPLH | 0.687 | 0 |
| […] (CDR3 as printed); S10N derived by comparing it with the table's wild-type CDR3 ASSPTGGSPSPLH | 1.13 | 0 |
| […] (CDR3 as printed); S3Y derived by comparing it with the table's wild-type CDR3 ASSPTGGSPSPLH | 0.895 | 0 |
| […] (CDR3 as printed); P9V derived by comparing it with the table's wild-type CDR3 ASSPTGGSPSPLH | 0.664 | 0 |
| […] (CDR3 as printed); S2R derived by comparing it with the table's wild-type CDR3 ASSPTGGSPSPLH | 0.703 | 0 |
| […] (CDR3 as printed); S2C derived by comparing it with the table's wild-type CDR3 ASSPTGGSPSPLH | 0.867 | 0 |
| […] (CDR3 as printed); T5L derived by comparing it with the table's wild-type CDR3 ASSPTGGSPSPLH | 0.514 | 0 |
| […] (CDR3 as printed); L12C derived by comparing it with the table's wild-type CDR3 ASSPTGGSPSPLH | 0.764 | 0 |
| […] (CDR3 as printed); S2H derived by comparing it with the table's wild-type CDR3 ASSPTGGSPSPLH | 0.777 | 0 |
| […] (CDR3 as printed); S8G derived by comparing it with the table's wild-type CDR3 ASSPTGGSPSPLH | 0.725 | 0 |
| […] (CDR3 as printed); S3M derived by comparing it with the table's wild-type CDR3 ASSPTGGSPSPLH | 0.806 | 0 |
| […] (CDR3 as printed); P11Y derived by comparing it with the table's wild-type CDR3 ASSPTGGSPSPLH | 0.787 | 0 |
| […] (CDR3 as printed); H13C derived by comparing it with the table's wild-type CDR3 ASSPTGGSPSPLH | 0.646 | 0 |
| […] (CDR3 as printed); P4C derived by comparing it with the table's wild-type CDR3 ASSPTGGSPSPLH | 0.776 | 0 |
| […] (CDR3 as printed); H13V derived by comparing it with the table's wild-type CDR3 ASSPTGGSPSPLH | 0.58 | 0 |
| […] (CDR3 as printed); G6E derived by comparing it with the table's wild-type CDR3 ASSPTGGSPSPLH | 1.12 | 0 |
